Results on 1 substance are retold here after patent US20070059314A1.

In the test the target is VEGF165 (UniProt P15692). Description: cell-based or functional assay.
VEGF165, sequence (P15692 other isoform, or with tags, fused parts or gaps limits assumed): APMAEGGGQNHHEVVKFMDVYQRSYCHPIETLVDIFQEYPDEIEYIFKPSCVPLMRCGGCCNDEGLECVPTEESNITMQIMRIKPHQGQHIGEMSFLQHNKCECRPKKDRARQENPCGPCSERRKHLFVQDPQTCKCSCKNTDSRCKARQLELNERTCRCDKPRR

As to “C-terminal fragment of the NOV protein (amino acids 188 to 357) (from UniProt P48745 188-357)”, the HUAEC cell proliferation induced by 2 ng/ml VEGF165 (crystal violet, OD 595 nm) worked out at 200 ng/mL.
